T1: human IL-2Rβ (human, UniProt P14784 27-239)
T1 sequence (looked up): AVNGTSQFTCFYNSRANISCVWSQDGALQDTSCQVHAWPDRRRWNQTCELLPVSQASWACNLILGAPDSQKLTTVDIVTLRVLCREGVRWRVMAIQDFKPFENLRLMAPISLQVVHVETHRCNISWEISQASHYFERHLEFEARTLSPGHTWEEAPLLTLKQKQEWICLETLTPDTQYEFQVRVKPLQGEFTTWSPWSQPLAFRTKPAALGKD


What was measured:
[1] = target: human IL-21R expressed on cells (human, UniProt Q9HBE5 20-538); experiment: cell-based or functional assay
human soluble IL-4R = target: T2, human soluble IL-4R (human, UniProt P24394 26-232, limits assumed); experiment: SPR, Ab captured
T2 construct: also called human sIL-4R
Procedure, shortened: (§1)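 SPR at 25 °C in HBS/EP: antibodies from conditioned media captured (500-700 RU) on amine-coupled anti-human IgG or anti-murine Ig on CM5 chip. 50 nM analyte injected, association 120 s and dissociation 180 s; glycine pH 1.5 regeneration, double-referenced sensorgrams.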

human IL-13-His/FLAG = target: T3, human IL-13-His/FLAG (human, UniProt P35225 35-146, limits assumed); experiment: SPR, Ab captured
T3 construct: Unrelated His/FLAG-tagged control; also called human IL-13-H/F
T3 sequence (P35225 35-146 limits assumed): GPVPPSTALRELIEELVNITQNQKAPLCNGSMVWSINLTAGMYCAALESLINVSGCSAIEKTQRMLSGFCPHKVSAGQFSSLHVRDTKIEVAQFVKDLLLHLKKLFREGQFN
Procedure, shortened: as §1

human IL-2Rβ = target: T1, human IL-2Rβ; experiment: SPR, Ab captured
Procedure, shortened: as §1

Chain of human IL-21R expressed on cells (Q9HBE5 20-538 limits assumed): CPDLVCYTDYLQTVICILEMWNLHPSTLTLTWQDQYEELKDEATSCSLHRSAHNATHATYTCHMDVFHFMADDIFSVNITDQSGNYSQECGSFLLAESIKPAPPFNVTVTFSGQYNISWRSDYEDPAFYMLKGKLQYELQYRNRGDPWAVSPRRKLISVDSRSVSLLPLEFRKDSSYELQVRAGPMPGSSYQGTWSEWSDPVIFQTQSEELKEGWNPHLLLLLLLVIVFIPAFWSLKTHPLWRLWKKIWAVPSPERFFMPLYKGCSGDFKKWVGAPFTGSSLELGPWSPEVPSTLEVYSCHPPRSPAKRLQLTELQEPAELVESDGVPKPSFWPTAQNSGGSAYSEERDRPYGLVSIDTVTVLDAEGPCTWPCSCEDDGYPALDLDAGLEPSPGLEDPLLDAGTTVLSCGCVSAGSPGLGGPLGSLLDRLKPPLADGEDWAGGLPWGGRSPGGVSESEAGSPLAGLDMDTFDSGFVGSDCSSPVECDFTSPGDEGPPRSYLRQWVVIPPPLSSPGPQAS

Row | IC50, IL-21-induced CD19 expression in human whole blood [1] [ng/mL] | IC50, IL-21-induced GZMB expression in human whole blood [1] [ng/mL] | IC50, IL-21-induced IFNG expression in human whole blood [1] [µg/mL] | IC50, IL-21-induced IL2Rα expression in human whole blood [1] [ng/mL] | IC50, IL-21-induced IL6 expression in human whole blood [1] [ng/mL] | IC50, IL-21-induced PRF1 expression in human whole blood [1] [ng/mL] | binding result (human soluble IL-4R) | binding result (human IL-13-His/FLAG) | binding result (human IL-2Rβ) | Binder
1 | 7 | < 3 | 0.015 | 2 | 5 | 7 |  |  |  | AbS (antibody, V domains shown, CDR3 graft, residue limits derived as for m29; also called VHP/VL6; VHPTM/VL6) VH: QVQLQESGPGLVKPSETLSLTCAVSGYSISSGYYWGWIRQPPGKGLEWIGSISHTGNTYYNPPLKSRVTISVDTSKNQFSLKLSSVTAADTAVYYCARGGGISRPEYWGQGTLVTVSS VL: SSELTQDPAVSVALGQTVRITCQGDSLRTYYASWYQQKPGQAPVLVIYGKHKRPSGIPDRFSGSSSGNTASLTITGAQAEDEADYYCMSRSIWGNPHVLFGGGTQLTVL
2 |  |  |  |  |  |  | no binding (tested: 50 nM) | no binding (tested: 50 nM) | no binding (tested: 50 nM) | parental 18A5 antibody (antibody, V domains shown, also called 18A5 IgG) VH: QVQLQESGPGLVKTSETLSLTCAVSGYSISSGYYWGWIRQPPGKGLEWIGSISHTGNTYYNPPLKSRVTISVDTSKNQFSLKLSSVTAADTAVYYCARGGGISRPEYWGKGTLVTVSS VL: SSELTQDPPVSVALGQTVTLTCQGDSLRTYYASWYQQKSGQAPILLLYGKHKRPSGIPDRFSGSTSGDTASLTITGAQAEDEADYYCNSRDSSGNPHVLFGGGTQLTVL

Source: patent US20120276102A1 (Pfizer, published 2012)
